This is an account of results in US20240158785A1 (Chugai, published 2024).

Assay [1] has as its target T1, human serum albumin (human, UniProt P02768 25-609, biotin-labeled antigen (position not given)).
T1 construct: also called HSA
The experiment in a line: phage ELISA: biotin-labeled HSA on a streptavidin plate, purified Fab-displaying phage, HRP anti-M13 antibody, absorbance 450 nm; with or without 10 mM ATP and adenosine. For orientation: ELISA stands for enzyme-linked immunosorbent assay.

In assay [2] the target is T2, human IL-6 receptor (human, UniProt P08887 20-357, limits assumed, biotin-labeled in the ELISA and Octet assays (position not given)).
T2 construct: also called hIL-6R; biotin-labeled hIL-6R
T2 sequence: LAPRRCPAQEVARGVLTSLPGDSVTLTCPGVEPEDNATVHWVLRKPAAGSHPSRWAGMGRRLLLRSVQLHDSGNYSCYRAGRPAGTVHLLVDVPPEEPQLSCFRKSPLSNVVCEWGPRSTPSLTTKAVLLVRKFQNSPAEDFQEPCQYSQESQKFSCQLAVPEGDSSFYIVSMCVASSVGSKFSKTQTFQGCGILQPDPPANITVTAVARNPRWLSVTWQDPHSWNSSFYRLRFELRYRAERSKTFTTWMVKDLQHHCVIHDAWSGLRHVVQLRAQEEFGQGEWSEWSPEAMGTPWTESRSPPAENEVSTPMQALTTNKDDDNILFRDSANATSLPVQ
Description: SPR (Biacore T200), hIL-6R amine-coupled on CM5, antibody as analyte, equilibrium values, 1 mM ATP, 25 C; 1 mM ATP; Biacore, hIL-6R on CM5, antibody concentration series, 25 C. The method, then: The running buffer used was 20 mmol/L ACES, 150 mmol/L NaCl, 0.05% (w/v) Tween20, pH 7.4. The assay was performed at 25° C. hIL-6R was immobilized onto Sensor chip CM5 by amine coupling, and interacted with the antibodies as an analyte for 120 seconds to observe changes in the amount of binding. Antibodies were diluted with the running buffer or the running buffer added with any one of ATP, ADP, AMP, cAMP, and adenosine (ADO). The final concentration of each small molecule was adjusted to 1 mM, and the final concentration of the antibody was adjusted to 1 μM. Meanwhile, under the 1 mM ATP condition, the assay was carried out with a series of stepwise antibody concentrations. The dissociation constant KD (mol/L) of each clone for hIL-6R was calculated from a plot of equilibrium values against antibody concentration. The parameters were calculated using the Biacore T200 Evaluation Software (GE Healthcare).
(In general: Surface plasmon resonance follows binding to a sensor surface in real time, without labels.)

The target of assay [3] is T2, human IL-6 receptor. The experiment in a line: ELISA: biotin-labeled hIL-6R on a streptavidin plate, purified IgG, absorbance 450 nm; with 1 mM kynurenine, tryptophan, phenylalanine, anthranilic acid, 3-hydroxykynurenine, kynurenic acid, or none (Table 14).
Description: The antigen used was biotin-labeled hIL-6R.
First, a StreptaWell 96 microtiter plate (Roche) was coated with 100 μL of PBS containing biotin-labeled antigens at room temperature for one hour or longer. […] 100 μL of each of the purified IgGs prepared at 2.5 μg/mL using Sample Buffer containing small molecules at the final concentrations shown in Table 14 were added to each well, and the plate was let still at room temperature for one hour to allow each IgG to bind to the antigen present in each well. After washing with Wash Buffer containing amino acids and amino acid metabolites at the final concentrations shown in Table 14, HRP-conjugated anti-human IgG antibody (BIOSOURCE) diluted with Sample Buffer containing amino acids and amino acid metabolites was added to each well, and the plate was incubated for one hour. After washing with Wash Buffer containing the respective amino acids and amino acid metabolites, the chromogenic reaction of TMB single solution (ZYMED) added in each well was terminated by adding sulfuric acid.
The target of assay [4] is T2, human IL-6 receptor. The experiment in a line: SPR (Biacore T200), antibody captured on protein A, hIL-6R as analyte, 100 µmol/L kynurenine, 25 C; 100 µmol/L kynurenine; Biacore, antibody captured, hIL-6R as analyte.
Description: An appropriate amount of protein A (Invitrogen) was immobilized onto Sensor chip CM5 (GE Healthcare) by the amine coupling method. The antibody of interest was captured onto the sensor chip, and the antigen hIL-6R was allowed to interact. […] The interaction with the antigen hIL-6R was measured at 25° C. hIL-6R was diluted with the running buffer, the running buffer containing 100 μmol/L kynurenine, or, as a control, the running buffer containing 10 mmol/L ATP.
Then, the running buffer was run at a flow rate of 10 μL/min for one minute to observe the dissociation of hIL-6R from the antibody. Next, 10 mmol/L glycine-HCl, pH 1.5, was injected at a flow rate of 30 μL/min for 30 seconds to regenerate the sensor chip. […] Each parameter was calculated using Biacore T200 Evaluation Software (GE Healthcare).

B1: HSADSA1-6_020 (Fab, V domains shown)
VH: EVQLVESGGDLVKPGGGLRLSCAASGFTFSSHTMNWVRQAPGKGLEWVSSISSRSNHATYADSVKGRFTISRDNAKNSLYLQMNSLRAEDTAVYYCARFGKKGRYLWVFDYWGQGTLVTVSS
VL: QSALTQPPSASGSPGQTVTISCTGTSSDVGDYNYVSWYQQHPGKAPKLMIYYVSKRPSGVPDRFSGSKSGNTASLTVSGLQAEDEADYFCSLTTDSLNPVFGGGTKLTVL
notes: also called clone HSADSA1-6_020
In the case of B1, the binding result in assay [1] is on record as “binds”.

B2: 6RAD2C1-4_030 (antibody, human IgG1, lambda, V domains shown)
VH: EVQLVESGGDLVKPGGGLRLSCAASGFTFSSYTMNWVRQAPGKGLEWVSSISSRSGYAYYADSVKGRFTISRDNAKNSLYLQMNSLRAEDTAVYYCARFGALNTLNWVFDYWGQGTLVTVSS
VL: QSALTQPPSASGSPGQTVTISCTGTSTDVGDYNYVSWYQQHPGKAPKLMIYQVSKKPSGVPDRFSGSKSGNTASLTVSGLQAEDEADYFCSTRTANAGVLFGGGTKLTVLG
notes: also called 6RAD2C1-4_30
One may read the Kd as a measure of binding affinity in units of concentration. In turn, B2 returned a Kd in assay [2] of 0.33 µM.

B3: GC413 (antibody, V domains shown)
VH: QVQLVQSGAEVKKPGASVKVSCKASGYTFTDYEMHWIRQPPGQGLEWIGAIDPKTGDTAYSQKFKGRVTLTADKSTSTAYMELSSLTSEDTAVYYCTRFYSYTYWGQGTLVTVSS
VL: DIVMTQSPLSLPVTPGEPASISCRSSQSLVHSNRNTYLHWYQQKPGQAPRLLIYKVSNRFSGVPDRFSGSGSGTDFTLKISRVEAEDVGVYYCSQNTHVPPTFGQGTKLEIK
notes: also called anti-human glypican 3 antibody GC413; negative control
As for B3, the binding result in assay [3] was “no binding (tested: 2.5 µg/mL)”.

B4: 6RNMSC1-2_F02 (antibody, human IgG1, V domains shown)
VH: QVQLVQSGAEVKKPGSSVKVSCKASGGTFSSYAISWVRQAPGQGLEWMGGIIPIFGTANYAQKFQGRVTITADESTSTAYMELSSLRSEDTAVYYCARDAPVVARPRGAFDIWGQGTMVTVSS
VL: DIVMTQTPLSSPVTLGQPASISCRSSQSLVHSDGNTYLSWLQQRPGQPPRLLIHEISNRFSGVPDRFSGSGAGTNFTLKISRVEAEDVGVYYCMQATQFPRTFGQGTKVEIK
notes: Variable region genes were inserted into a human IgG1/Kappa expression plasmid; also called clone 6RNMSC1-2_F02; antibody 6RNMSC1-2_F02
B4 had a Kd in assay [4] of 1.5 µM.

B5: 6RAD2C1-4_001 (antibody, human IgG1, lambda, V domains shown)
VH: EVQLVESGGDLVKPGGGLRLSCAASGFTFSGHTMNWVRQAPGKGLEWVSSISSRSNYIYYADSVKGRFTISRDNAKNSLYLQMNSLRAEDTAVYYCARYGRLHDRNWVFDYWGQGTLVTVSS
VL: QSALTQPPSASGSPGQTVTISCTGTSTDVGDYNYVSWYQQHPGKAPKLMIYQVSKKPSGVPDRFSGSKSGNTASLTVSGLQAEDEADYFCSSRSYGAGVVFGGGTKLTVLG
notes: also called 6RAD2C1-4_01
In assay [2], B5 displayed a Kd of 0.3 µM.

B6: 6RDL3C1-4_085 (antibody, human IgG1, lambda, V domains shown)
VH: EVQLVESGGDLVKPGGGLRLSCAASGFTFSGHTMNWVRQAPGKGLEWVSSISSRSNYIYYADSVKGRFTISRDNAKNSLYLQMNSLRAEDTAVYYCARYGRLHDRNWVFDYWGQGTLVTVSS
VL: QSALTQPPSASGSPGQTVTISCTGTSTDVGDYNYVSWYQQHPGKAPKLMIYQVSKKPSGVPDRFSGSKSGNTASLTVSGLQAEDEADYFCSSRSYGAGVVFGGGTKLTVLG
notes: also called 6RDL3C1-4_85
Regarding B6, in assay [2], the Kd is 0.39 µM. This Kd and that of the molecule before are within 1.5-fold of each other.

B7: 6RAD2C1-4_076 (antibody, human IgG1, lambda, V domains shown)
VH: EVQLVESGGDLVKPGGGLRLSCAASGFTFSGYTMNWVRQAPGKGLEWVSSISSRSSYIDYADSVKGRFTISRDNAKNSLYLQMNSLRAEDTAVYYCARYGALGQRNWVFDYWGQGTLVTVSS
VL: QSALTQPPSASGSPGQTVTISCTGTSTDVGDYNYVSWYQQHPGKAPKLMIYQTSKRPSGVPDRFSGSKSGNTASLTVSGLQAEDEADYFCSSRSIKHPVFGGGTKLTVLG
notes: also called 6RAD2C1-4_76
B7 displayed a Kd in assay [2] of 0.25 µM.

B8: 6RAD2C1-4_026 (antibody, human IgG1, lambda, V domains shown)
VH: EVQLVESGGDLVKPGGGLRLSCAASGFTFSGYTMNWVRQAPGKGLEWVSSISSRSNYAHYADSVKGRFTISRDNAKNSLYLQMNSLRAEDTAVYYCARYGRLGDRNWVFDYWGQGTLVTVSS
VL: QSALTQPPSASGSPGQTVTISCTGTSTDVGAYNYVSWYQQHPGKAPKLMIYKVSKKPSGVPDRFSGSKSGNTASLTVSGLQAEDEADYFCSLRAATTGVLFGGGTKLTVLG
notes: also called 6RAD2C1-4_26
On to B8, for which binding in assay [2] was characterised by a dissociation constant (Kd) of 0.21 µM.

B9: 6RAD2C1-4_005 (antibody, human IgG1, lambda, V domains shown)
VH: EVQLVESGGDLVKPGGGLRLSCAASGFTFSTHTMNWVRQAPGKGLEWVSSISSRSSYIHYADSVKGRFTISRDNAKNSLYLQMNSLRAEDTAVYYCARFGKLGERNWVFDYWGQGTLVTVSS
VL: QSALTQPPSASGSPGQTVTISCTGTSTDVGDYNYVSWYQQHPGKAPKLMIYQVSKKPSGVPDRFSGSKSGNTASLTVSGLQAEDEADYFCSVRSDGHGPMFGGGTKLTVLG
notes: also called 6RAD2C1-4_05
In turn, B9 came in with a Kd in assay [2] of 0.34 µM. This Kd lies about 1.6-fold higher than the previous one.

B10: 6RAD2C1-4_011 (antibody, human IgG1, lambda, V domains shown)
VH: EVQLVESGGDLVKPGGGLRLSCAASGFTFSGHTMNWVRQAPGKGLEWVSSISSRSSYIYYADSVKGRFTISRDNAKNSLYLQMNSLRAEDTAVYYCARYGALGQMNWVFDYWGQGTLVTVSS
VL: QSALTQPPSASGSPGQTVTISCTGTSTDVGDYNYVSWYQQHPGKAPKLMIYSVSKRPSGVPDRFSGSKSGNTASLTVSGLQAEDEADYFCSSRSSSMNVLFGGGTKLTVLG
notes: also called 6RAD2C1-4_11
In the case of B10, the dissociation constant Kd in assay [2] amounted to 0.23 µM.
